According to patent US9493557B2, “Chemokine binding polypeptides for treating autoimmunity and inflammation” (Biokine Therapeutics Ltd., priority 2009, dated 2016):

How the values were obtained:
Format in all cases: cell-based
[1] = biological target: T1, MCP-1 (Homo sapiens, UniProt P13500); assay: In vitro T cell adhesion to VCAM-1 induced by MCP-1 under shear flow; conditions: for Inhibition of chemokine-dependent T cell adhesion: MCP-1: 10 μg/ml peptide, T cells on VCAM-1 under shear flow; for T cell adhesion induced by MCP-1 (result in words): T cells on VCAM-1
T1 construct: purchased PeproTech
Description: (§1) 50 ml of blood was added to 10 ml of a solution of Dextran T-500 (6% w/v) in PBS (phosphate buffer saline), and 7 ml of citrate buffer (25 grams citrate, 8 grams citric acid in 500 ml PBS). The solution was incubated for 30 minutes at 25° C. 10 ml of Ficoll 1077 was added to the bottom of the tube. The tube was then centrifuged at 2,000 rotations per minute for 30 minutes at 18° C. (with the brake mode of the centrifuge off). The interphase was collected and washed twice with 8 ml PBS with 5% FCS (fetal calf serum), followed by centrifugation at 1,400 rotations per minute for 5 minutes at 18° C. The cells were re-suspended in PBS with 5% FCS at a concentration less then 10^8 per ml. 2 ml of the cell solution were applied on a poly(methyl methacrylate) nylon wool column which was pre-soaked in PBS-5% FCS, and then incubated for 45 minutes at 25° C. Each column was washed with 8 ml PBS-5% FCS and the cells (T-cells and erythrocytes) were eluted by 50 ml of 5 mM EDTA (ethylenediaminetetraacetic acid) in PBS. A red pellet was obtained by centrifugation at 1,400 rotations per minute for 5 minutes at 4° C. (with the brake on).
(§2) In order to perform lysis of the erythrocytes, the red pellet was re-suspended in 5 ml of lysis-buffer (155 mM NH4Cl, 10 mM KHCO3, 0.1 mM EDTA, X0.1 PBS) for 4 minutes, followed by immediate addition of 50 ml of PBS with EDTA. Following centrifugation at 1,400 rotations per minute for 5 minutes at 4° C., the pellet was washed again with 50 ml PBS-EDTA and re-centrifuged under the same conditions. A white pellet was obtained and re-suspended in RPMI medium with 10% FCS, L-glutamine, sodium pyruvate and antibiotics at a concentration of 3×10^6 cells per ml. The cells were incubated for 2 hours at 37° C., followed by collection of the non-adherent cells. The cells were ready for use in experiments after overnight incubation at 37° C.
(§3) 10 μg/ml of human VCAM-1 and 2 μg/ml of a chemokine (intact MIG, IP-10, I-TAC, MCP-1, RANTES, SDF-1 (stromal cell-derived factor-1), BCA-1 (B lymphocyte chemoattractant-1), IL-8 (interleukin-8) or eotaxin, or heat-inactivated SDF-1 as a control) were dissolved in PBS buffered with 20 mM bicarbonate (pH 8.5), and incubated in polystyrene plates overnight at 4° C. Alternatively, 10 μg/ml of the chemokine was used, and the plates were incubated for 30 minutes at room temperature. […]
(§4) The plates were then assembled as the lower wall of a parallel wall flow chamber and mounted on the stage of an inverted microscope. […] The number of adherent cells resisting detachment by the elevated shear forces was determined after each interval by analysis of videotaped cell images, and was expressed as the percent of originally settled cells. […]

[2] = biological target: T2, I-TAC (Homo sapiens, UniProt O14625); assay: In vitro T cell adhesion to VCAM-1 induced by I-TAC under shear flow; conditions: for Inhibition of chemokine-dependent T cell adhesion: I-TAC: 10 μg/ml peptide, T cells on VCAM-1 under shear flow; for T cell adhesion induced by I-TAC (result in words): T cells on VCAM-1
T2 construct: purchased PeproTech
T2 sequence (O14625 22-94): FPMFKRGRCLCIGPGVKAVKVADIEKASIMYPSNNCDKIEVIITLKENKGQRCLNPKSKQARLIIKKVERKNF
Description: as §1, §2, §3, §4

[3] = biological target: T3, SDF-1 (Homo sapiens, UniProt P48061); assay: In vitro T cell adhesion to VCAM-1 induced by SDF-1 under shear flow; conditions: 10 μg/ml peptide; T cells on VCAM-1 under shear flow
T3 construct: purchased PeproTech
Description: (§5) 50 ml of blood was added to 10 ml of a solution of Dextran T-500 (6% w/v) in PBS (phosphate buffer saline), and 7 ml of citrate buffer (25 grams citrate, 8 grams citric acid in 500 ml PBS). The solution was incubated for 30 minutes at 25° C. 10 ml of Ficoll 1077 was added to the bottom of the tube. The tube was then centrifuged at 2,000 rotations per minute for 30 minutes at 18° C. (with the brake mode of the centrifuge off). The interphase was collected and washed twice with 8 ml PBS with 5% FCS (fetal calf serum), followed by centrifugation at 1,400 rotations per minute for 5 minutes at 18° C. The cells were re-suspended in PBS with 5% FCS at a concentration less then 10^8 per ml. […]
(§6) In order to perform lysis of the erythrocytes, the red pellet was re-suspended in 5 ml of lysis-buffer (155 mM NH4Cl, 10 mM KHCO3, 0.1 mM EDTA, X0.1 PBS) for 4 minutes, followed by immediate addition of 50 ml of PBS with EDTA. […] The cells were ready for use in experiments after overnight incubation at 37° C. […]
as §4

[4] = biological target: T4, IL-8 (Homo sapiens, UniProt P10145); assay: In vitro T cell adhesion to VCAM-1 induced by IL-8 under shear flow; conditions: 10 μg/ml peptide; T cells on VCAM-1 under shear flow
T4 construct: purchased PeproTech
T4 sequence (P10145 21-99): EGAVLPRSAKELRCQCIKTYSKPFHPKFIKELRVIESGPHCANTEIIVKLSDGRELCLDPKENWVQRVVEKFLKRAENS
Description: as §5, §6, §4

[5] = biological target: T5, RANTES (Homo sapiens, UniProt P13501); assay: In vitro T cell adhesion to VCAM-1 induced by RANTES under shear flow; conditions: for Inhibition of chemokine-dependent T cell adhesion: RANTES: 10 μg/ml peptide, T cells on VCAM-1 under shear flow; for T cell adhesion induced by RANTES (result in words): T cells on VCAM-1
T5 construct: purchased PeproTech
T5 sequence (P13501 24-91): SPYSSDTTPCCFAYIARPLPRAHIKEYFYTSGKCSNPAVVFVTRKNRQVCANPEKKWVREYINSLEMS
Description: as §1, §2, §3, §4

[6] = biological target: T6, IP-10 (Homo sapiens, UniProt P02778); assay: In vitro T cell adhesion to VCAM-1 induced by IP-10 under shear flow; conditions: for Inhibition of chemokine-dependent T cell adhesion: IP-10: 10 μg/ml peptide, T cells on VCAM-1 under shear flow
T6 construct: purchased PeproTech
T6 sequence (P02778 22-98): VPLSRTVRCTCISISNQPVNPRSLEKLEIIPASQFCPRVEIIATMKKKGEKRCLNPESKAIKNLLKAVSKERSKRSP
Description: as §1
(§7) In order to perform lysis of the erythrocytes, the red pellet was re-suspended in 5 ml of lysis-buffer (155 mM NH4Cl, 10 mM KHCO3, 0.1 mM EDTA, X0.1 PBS) for 4 minutes, followed by immediate addition of 50 ml of PBS with EDTA. Following centrifugation at 1,400 rotations per minute for 5 minutes at 4° C., the pellet was washed again with 50 ml PBS-EDTA and re-centrifuged under the same conditions. […] The cells were ready for use in experiments after overnight incubation at 37° C. […]
as §4

[7] = biological target: T7, MIG (Homo sapiens, UniProt Q07325); assay: In vitro T cell adhesion to VCAM-1 induced by MIG under shear flow; conditions: for Inhibition of chemokine-dependent T cell adhesion: MIG: 10 μg/ml peptide, T cells on VCAM-1 under shear flow
T7 construct: purchased PeproTech
T7 sequence (Q07325 23-125): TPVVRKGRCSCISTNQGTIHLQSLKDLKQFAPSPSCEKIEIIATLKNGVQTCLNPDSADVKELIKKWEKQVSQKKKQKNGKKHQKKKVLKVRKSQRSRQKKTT
Description: as §1, §7, §4

[8] = biological target: T8, Eotaxin (Homo sapiens, UniProt P51671); assay: In vitro T cell adhesion to VCAM-1 induced by eotaxin under shear flow; conditions: for Inhibition of chemokine-dependent T cell adhesion: Eotaxin: 10 μg/ml peptide, T cells on VCAM-1 under shear flow
T8 construct: purchased PeproTech
Description: as §1, §7, §4

[9] = biological target: T9, BCA-1 (Homo sapiens, UniProt O43927); assay: In vitro T cell adhesion to VCAM-1 induced by BCA-1 under shear flow; conditions: 10 μg/ml peptide; T cells on VCAM-1 under shear flow
T9 sequence (O43927 23-109): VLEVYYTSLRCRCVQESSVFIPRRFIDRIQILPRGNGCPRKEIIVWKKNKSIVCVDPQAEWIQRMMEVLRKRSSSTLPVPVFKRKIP
Description: as §5, §6, §4

T8 sequence (P51671 24-97): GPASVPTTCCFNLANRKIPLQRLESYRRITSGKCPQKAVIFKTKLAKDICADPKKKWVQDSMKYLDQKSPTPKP
T1 sequence (P13500 24-99): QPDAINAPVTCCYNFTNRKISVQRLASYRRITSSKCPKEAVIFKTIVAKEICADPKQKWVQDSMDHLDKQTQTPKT
T3 sequence (P48061 22-89 limits assumed): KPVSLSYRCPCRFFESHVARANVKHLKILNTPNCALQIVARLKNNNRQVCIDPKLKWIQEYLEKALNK

Row | Sequence | Inhibition of chemokine-dependent T cell adhesion: MCP-1 [1] | T cell adhesion induced by MCP-1 (result in words) [1] | Inhibition of chemokine-dependent T cell adhesion: I-TAC [2] | T cell adhesion induced by I-TAC (result in words) [2] | Inhibition of chemokine-dependent T cell adhesion: SDF-1 [3] | Inhibition of chemokine-dependent T cell adhesion: IL-8 [4] | Inhibition of chemokine-dependent T cell adhesion: RANTES [5] | T cell adhesion induced by RANTES (result in words) [5] | Inhibition of chemokine-dependent T cell adhesion: IP-10 [6] | Inhibition of chemokine-dependent T cell adhesion: MIG [7] | T cell adhesion induced by MIG (result in words) ([7]; T cells on VCAM-1) | Inhibition of chemokine-dependent T cell adhesion: Eotaxin [8] | Inhibition of chemokine-dependent T cell adhesion: BCA-1 [9] | T cell adhesion induced by IP-10 (result in words) ([6]; T cells on VCAM-1) | T cell adhesion induced by eotaxin (result in words) ([8]; T cells on VCAM-1)
1 | LDYPIPQTVLHH [BKT-P46, reference compound] | ++ (++ = 100% inhibition) | inhibited | ++ (++ = 100% inhibition) | inhibited | − (− = no inhibition) | − (− = no inhibition) | ++ (++ = 100% inhibition) | inhibited | − (− = no inhibition) | ++ (++ = 100% inhibition) | inhibited | − (− = no inhibition) |  |  | 
2 | SIPSHSIHSAKA [BKT-P2, reference compound] | ++ (++ = 100% inhibition) | inhibited | ++ (++ = 100% inhibition) | inhibited | − (− = no inhibition) |  | ++ (++ = 100% inhibition) | inhibited | ++ (++ = 100% inhibition) | − (− = no inhibition) |  | ++ (++ = 100% inhibition) | − (− = no inhibition) | inhibited | inhibited
